Measurements: US7182945
Like-named read-outs stand apart in the source and are kept apart here.

T1: human leukocyte elastase (hLE) (human), P08246
T1 chain: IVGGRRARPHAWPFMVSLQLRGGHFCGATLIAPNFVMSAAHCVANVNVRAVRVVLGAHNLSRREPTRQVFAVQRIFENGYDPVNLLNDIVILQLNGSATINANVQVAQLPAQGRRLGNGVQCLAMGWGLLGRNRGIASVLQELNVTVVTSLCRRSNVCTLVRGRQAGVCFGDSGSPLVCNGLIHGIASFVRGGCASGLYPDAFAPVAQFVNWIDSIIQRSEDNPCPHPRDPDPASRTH

T2: human leukocyte cathepsin G (hCG) (human), P08311
T2 chain: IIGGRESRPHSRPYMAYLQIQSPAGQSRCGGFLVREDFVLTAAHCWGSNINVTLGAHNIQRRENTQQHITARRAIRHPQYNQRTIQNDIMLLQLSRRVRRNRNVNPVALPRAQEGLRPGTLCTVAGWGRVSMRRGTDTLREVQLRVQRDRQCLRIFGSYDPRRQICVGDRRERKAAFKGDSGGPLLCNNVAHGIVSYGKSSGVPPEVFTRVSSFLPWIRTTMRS


Key:
Details in all cases: modification not given
[1] = target: T1, human leukocyte elastase (hLE) (human), …
[2] = target: T2, human leukocyte cathepsin G (hCG) …; experiment: other enzyme inhibition
[3] = target: T1, human leukocyte elastase (hLE) (human), …
[4] = target: T1, human leukocyte elastase (hLE) (human), …
[5] = target: T1, human leukocyte elastase (hLE) (human), …
[6] = target: T1, human leukocyte elastase (hLE) (human), …
[7] = target: T1, human leukocyte elastase (hLE) (human), …
[8] = target: T1, human leukocyte elastase (hLE) (human), …
[9] = target: T1, human leukocyte elastase (hLE) (human), …
[10] = target: T1, human leukocyte elastase (hLE) (human), …
[11] = target: T1, human leukocyte elastase (hLE) (human), …
[12] = target: T1, human leukocyte elastase (hLE) (human), …
[13] = target: T1, human leukocyte elastase (hLE) (human), …
[14] = target: T1, human leukocyte elastase (hLE) (human), …
[15] = target: T1, human leukocyte elastase (hLE) (human), …; experiment: other enzyme inhibition

Ki [2]	Binder	also measured
0.25 µM	EILIFWSKDIGYSFT [CRP62-76 (peptide 6)]	Ki [1]: 0.18 µM
150 µM	ILFEVPEVTVAPVHI [CRP82-96 (peptide 10)]	Ki [3]: 55 µM
> 200 µM	VGGSEILFEVPEVTV [CRP77-91 (peptide 9)]	–
5.5 µM	EILIFWSKAIGYSFT [peptide 22]	Ki [4]: 3 µM
15 µM	ILIFWSKDIGYSFT [CRP63-76 (peptide 11)]	Ki [5]: 4.5 µM
> 200 µM	WSKDIGYSFTVGGSE [CRP67-81 (peptide 7)]	–
> 200 µM	GYSFTVGGSEILFEV [CRP72-86 (peptide 8)]	–
180 µM	KRQDNEILIFWSKDI [CRP57-71 (peptide 5)]	Ki [6]: 85 µM
5.5 µM	ATKRQDNEILIFWSKDIGYSFTVGGSEIL [CRP55-83 (peptide 17)]	Ki [7]: 7.3 µM
30 µM	EILIFWPKDIGYSFT [peptide 19]	–
–	TFSYGIDKSWFILIE [peptide 24]	Ki [8]: 10 µM
–	EILIFWSVDI [peptide 26]	Ki [9]: 2 µM
–	EILIFWSADI [peptide 25]	Ki [10]: 3 µM
4 µM	EILIFWSKDIGY [CRP62-73 (peptide 13)]	Ki [11]: 1.1 µM
6 µM	EILIFWSKDI [CRP62-71 (peptide 14)]	Ki [12]: 6.7 µM
0.85 µM	EILIFWSKEIGYSFT [peptide 23]	Ki [13]: 0.55 µM
> 200 µM	FSYATKRQDNEILIF [CRP52-66 (peptide 4)]	–
2.6 µM	DILIFWSKDIGYSFT [peptide 18]	Ki [14]: 2.2 µM
–	LHFYTELSSTRGYSI [CRP37-51 (peptide 1)]	Ki [15]: > 200 µM
